Assay [1] deals with CT26 colorectal tumor cells. As to the kind of experiment: Established CT26 colorectal tumor model. To be noted: 100 mg/kg cyclophosphamide on day 10, alone.
Excerpt: Balb/C mice at age of 9 to 11 weeks were implanted subcutaneously with 1.0×10^5 CT26 colorectal tumor cells.
In assay [2] the target is T1, recombinant human PD-1/Fc (Homo sapiens, UniProt Q15116).
T1 construct: Fc (immunoglobulin Fc fusion partner); purchased R&D Systems
Put plainly: PD-1 binding ELISA, human B7-DC-Ig. To be noted: four different lots, FIG. 1A. The procedure:
96-well ELISA plates were coated with 100 μL 0.75 ug/mL recombinant human PD-1/Fc (R&D Systems) diluted in BupH Carbonate/Bicarbonate pH 9.4 buffer (Pierce) for 2 hours and then blocked with BSA solution (Jackson ImmunoResearch) for 90-120 minutes. […] Absorbance at 450 nm was read using a plate reader (Molecular Devices) and data were analyzed in SoftMax using a 4-parameter logistic fit.

Assay [3] addresses T2, recombinant mouse PD-1/Fc (Mus musculus, UniProt Q02242).
T2 construct: Fc (immunoglobulin Fc fusion partner); purchased R&D Systems
Put plainly: PD-1 binding ELISA, murine B7-DC-Ig. To be noted: FIG. 1B. The procedure: 96-well ELISA plates were coated with 100 μL 0.75 ug/mL recombinant mouse PD-1/Fc (R&D Systems) diluted in BupH Carbonate/Bicarbonate pH 9.4 buffer (Pierce) for 2 hours and then blocked with BSA solution (Candor-Bioscience) for 90 minutes. […] Absorbance at 450 nm was read using a plate reader (Molecular Devices) and data were analyzed in SoftMax using a 4-parameter logistic fit.
(In an ELISA, binding on a coated surface is turned into a signal by an enzyme label.)

T2 sequence (Q02242 with tags, fused parts or gaps limits assumed): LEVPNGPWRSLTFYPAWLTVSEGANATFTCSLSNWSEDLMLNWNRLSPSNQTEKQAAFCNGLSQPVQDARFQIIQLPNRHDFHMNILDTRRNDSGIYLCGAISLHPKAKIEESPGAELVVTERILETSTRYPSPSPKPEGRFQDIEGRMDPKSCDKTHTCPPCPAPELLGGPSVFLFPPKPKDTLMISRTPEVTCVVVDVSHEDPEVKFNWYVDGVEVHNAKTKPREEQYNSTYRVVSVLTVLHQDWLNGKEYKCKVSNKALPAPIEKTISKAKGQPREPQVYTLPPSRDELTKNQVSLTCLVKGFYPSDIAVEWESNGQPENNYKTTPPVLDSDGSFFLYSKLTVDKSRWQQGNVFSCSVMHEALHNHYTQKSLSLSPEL
T1 sequence (Q15116 with tags, fused parts or gaps limits assumed): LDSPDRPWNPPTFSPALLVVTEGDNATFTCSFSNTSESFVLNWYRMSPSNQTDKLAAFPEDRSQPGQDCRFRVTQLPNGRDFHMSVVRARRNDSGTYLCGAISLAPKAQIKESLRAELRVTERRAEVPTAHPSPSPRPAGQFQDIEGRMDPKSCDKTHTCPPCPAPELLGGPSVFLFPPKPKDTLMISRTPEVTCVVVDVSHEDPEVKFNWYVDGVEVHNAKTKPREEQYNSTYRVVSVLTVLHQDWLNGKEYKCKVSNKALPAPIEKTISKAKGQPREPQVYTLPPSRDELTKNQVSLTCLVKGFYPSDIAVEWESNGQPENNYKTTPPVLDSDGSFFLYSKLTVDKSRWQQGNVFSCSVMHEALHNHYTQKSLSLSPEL

In the case of `O=P1(N(CCCl)CCCl)NCCCO1` (centres unmarked) [CTX, cyclophosphamide], the “outcome of tumor-bearing mice (death or euthanasia)” value in assay [1] is on record as “died as a result of tumor growth or were euthanized”.
In the case of “human B7-DC-Ig: human PD-L2 (B7-DC) fusion protein; representative sequence SEQ ID NO: 56/57”, the “binding to PD-1 in PD-1 binding ELISA (OD450)” value (shortened to “binding”) in assay [2] was “binding to PD-1”.

B1: D111S: murine B7-DC-Ig with the D111S substitution (protein)
chain: LFTVTAPKEVYTVDVGSSVSLECDFDRRECTELEGIRASLQKVENDTSLQSERATLLEEQLPLGKALFHIPSVQVRDSGQYRCLVICGAAWSYKYLTVKVKASYMRIDTRILEVPGTGEVQLTCQARGYPLAEVSWQNVSVPANTSHIRTPEGLYQVTSVLRLKPQPSRNFSCMFWNAHMKELTSAIIDPLSRMEPKVPRTWEPRGPTIKPCPPCKCPAPNLLGGPSVFIFPPKIKDVLMISLSPIVTCVVVDVSEDDPDVQISWFVNNVEVHTAQTQTHREDYNSTLRVVSALPIQHQDWMSGKEFKCKVNNKDLPAPIERTISKPKGSVRAPQVYVLPPPEEEMTKKQVTLTCMVTDFMPEDIYVEWTNNGKTELNYKNTEPVLDSDGSYFMYSKLRVEKKNWVERNSYSCSVVHEGLHNHHTTKSFSRTPGK
For B1, the “binding” value in assay [3] is listed as “reduced binding to PD-1”.

B2: K113S: murine B7-DC-Ig with the K113S substitution (protein)
chain: LFTVTAPKEVYTVDVGSSVSLECDFDRRECTELEGIRASLQKVENDTSLQSERATLLEEQLPLGKALFHIPSVQVRDSGQYRCLVICGAAWDYSYLTVKVKASYMRIDTRILEVPGTGEVQLTCQARGYPLAEVSWQNVSVPANTSHIRTPEGLYQVTSVLRLKPQPSRNFSCMFWNAHMKELTSAIIDPLSRMEPKVPRTWEPRGPTIKPCPPCKCPAPNLLGGPSVFIFPPKIKDVLMISLSPIVTCVVVDVSEDDPDVQISWFVNNVEVHTAQTQTHREDYNSTLRVVSALPIQHQDWMSGKEFKCKVNNKDLPAPIERTISKPKGSVRAPQVYVLPPPEEEMTKKQVTLTCMVTDFMPEDIYVEWTNNGKTELNYKNTEPVLDSDGSYFMYSKLRVEKKNWVERNSYSCSVVHEGLHNHHTTKSFSRTPGK
Take B2: the “binding” value in assay [3] is reported as “reduced binding to PD-1”.

B3: wild type murine B7-DC-Ig: murine PD-L2 (B7-DC) fusion protein; representative sequence SEQ ID NO: 53/54 (protein, listed as Mus musculus)
chain: MLLLLPILNLSLQLHPVAALFTVTAPKEVYTVDVGSSVSLECDFDRRECTELEGIRASLQKVENDTSLQSERATLLEEQLPLGKALFHIPSVQVRDSGQYRCLVICGAAWDYKYLTVKVKASYMRIDTRILEVPGTGEVQLTCQARGYPLAEVSWQNVSVPANTSHIRTPEGLYQVTSVLRLKPQPSRNFSCMFWNAHMKELTSAIIDPLSRMEPKVPRTWEPRGPTIKPCPPCKCPAPNLLGGPSVFIFPPKIKDVLMISLSPIVTCVVVDVSEDDPDVQISWFVNNVEVHTAQTQTHREDYNSTLRVVSALPIQHQDWMSGKEFKCKVNNKDLPAPIERTISKPKGSVRAPQVYVLPPPEEEMTKKQVTLTCMVTDFMPEDIYVEWTNNGKTELNYKNTEPVLDSDGSYFMYSKLRVEKKNWVERNSYSCSVVHEGLHNHHTTKSFSRTPGK
As to B3, the “binding” value in assay [3] is on record as “binding to PD-1”.

The record behind these values is patent US20140227262A1, “PD-1 Antagonists and Methods for Treating Infectious Disease” (AMPLIMMUNE, INC., priority 2008, published 2014).
